Measured values taken from paper PMC2745324 (Biochemistry, 2009).
Substitutions are numbered along the chain they refer to. In names and notes the source's numbering stands. Read-outs that look alike come from different tables or passages of the source.

Legend:
[1] = target: human adenylosuccinate lyase K246E mutant (human) (UniProt P30566)
[2] = target: human adenylosuccinate lyase K246E mutant (human) (UniProt P30566); assay: AUC
AUC [3] = target: the molecule itself; assay: AUC
AUC [4] = target: the molecule itself; assay: AUC; remark: listed apart in the source
SEC = target: the molecule itself; assay: SEC
AUC [5] = target: the molecule itself; assay: AUC; remark: listed apart in the source

With “human adenylosuccinate lyase K246E mutant (from UniProt P30566 1-481) (enzyme)” the Vmax of SAMP cleavage at 25 °C [1] was 0.23 µmol/min/mg, the percent as dimer (D-12mer model) [2] was 94% and the stoichiometry N [2] was 2.

B1: human adenylosuccinate lyase, wild type (enzyme)
chain: MAAGGDHGSPDSYRSPLASRYASPEMCFVFSDRYKFRTWRQLWLWLAEAEQTLGLPITDEQIQEMKSNLENIDFKMAAEEEKRLRHDVMAHVHTFGHCCPKAAGIIHLGATSCYVGDNTDLIILRNALDLLLPKLARVISRLADFAKERASLPTLGFTHFQPAQLTTVGKRCCLWIQDLCMDLQNLKRVRDDLRFRGVKGTTGTQASFLQLFEGDDHKVEQLDKMVTEKAGFKRAFIITGQTYTRKVDIEVLSVLASLGASVHKICTDIRLLANLKEMEEPFEKQQIGSSAMPYKRNPMRSERCCSLARHLMTLVMDPLQTASVQWFERTLDDSANRRICLAEAFLTADTILNTLQNISEGLVVYPKVIERRIRQELPFMATENIIMAMVKAGGSRQDCHEKIRVLSQQAASVVKQEGGDNDLIERIQVDAYFSPIHSQLDHLLDPSSFTGRASQQVQRFLEEEVYPLLKPYESVMKVKAE
In the case of B1, the “percent as monomer (M-Tet model)” value (AUC [3]) is reported as 32%, the “percent as tetramer (M-Tet model)” value (AUC [3]) is reported as 68% and the “percent as monomer (M-Tet model)” value (AUC [4]) is reported as 20%. For the same molecule, the “percent as tetramer (M-Tet model)” value (AUC [4]) was 80% and the “stoichiometry N” value (SEC) was 4.

B2: human adenylosuccinate lyase R396H mutant (enzyme)
chain: B1 chain with R396H
For B2, the “percent as monomer (M-Tet model)” value (AUC [3]) was 34%, the “percent as tetramer (M-Tet model)” value (AUC [3]) was 66% and the “stoichiometry N” value (AUC [5]) was 4.

B3: human adenylosuccinate lyase L311V mutant (enzyme)
chain: B1 chain with L311V
B3 was tested, and the “percent as monomer (M-Tet model)” value (AUC [3]) was 32%, the “percent as tetramer (M-Tet model)” value (AUC [3]) was 68% and the “percent as monomer (M-Tet model)” value (AUC [4]) was 40%. For the same molecule, the “percent as tetramer (M-Tet model)” value (AUC [4]) was 60% and the “stoichiometry N” value (SEC) was 4.

B4: human adenylosuccinate lyase R396C mutant (enzyme)
chain: B1 chain with R396C
With B4 the “percent as monomer (M-Tet model)” value (AUC [3]) was 40%, the “percent as tetramer (M-Tet model)” value (AUC [3]) was 60% and the “percent as monomer (M-Tet model)” value (AUC [4]) was 32%. The “percent as tetramer (M-Tet model)” value (AUC [4]) was 68% and the “stoichiometry N” value (AUC [5]) was 4.

B5: human adenylosuccinate lyase R194C mutant (enzyme)
chain: B1 chain with R194C
In the case of B5, the “percent as monomer (M-Tet model)” value (AUC [3]) is reported as 33%, the “percent as tetramer (M-Tet model)” value (AUC [3]) is reported as 67% and the “percent as monomer (M-Tet model)” value (AUC [4]) is reported as 37%. For the same molecule, the “percent as tetramer (M-Tet model)” value (AUC [4]) was 63% and the “stoichiometry N” value (SEC) was 4.
